The target of the experiment is SpAB-T7 RNAP.

Sequence of Bamlanivimab (antibody) (VH): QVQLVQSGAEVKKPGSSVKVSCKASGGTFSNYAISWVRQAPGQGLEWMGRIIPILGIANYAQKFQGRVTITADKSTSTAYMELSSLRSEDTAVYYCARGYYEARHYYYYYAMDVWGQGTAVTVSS
Sequence of Bamlanivimab (antibody) (VL): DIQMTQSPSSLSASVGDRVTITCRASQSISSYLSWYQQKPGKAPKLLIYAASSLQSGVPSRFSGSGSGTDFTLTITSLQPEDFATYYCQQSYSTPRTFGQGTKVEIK

Take Bamlanivimab (antibody): the MDC (minimal detectable concentration of Bamlanivimab in the ZF-RBD / SpAB-T7 RNAP sensor, 2.5% human serum) came to 12.7 nM.

The values above are taken from paper PMC13389190.
